Source: the supplement of paper PMC11316812
± gives the standard deviation of the averaged measurements.

Experiments:
[1] = test system: MCF7; assay: percentage of EdU-negative (G0-arrested) nuclei per well, 72 h; higher = more G0 arrest; conditions: reference: sequence is the full UniProt precursor, the tested protein was the secreted form or ectodomain
[2] = test system: hTERT-HMEC; assay: as above; conditions: reference: sequence is the full UniProt precursor, the tested protein was the secreted form or ectodomain
[3] = protein concentration 0.0357143 µM
[4] = protein concentration 0.357143 µM
[5] = protein concentration 0.0225 µM
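Also: secreted proteins added to cultured cells, EdU pulse at the end, nuclei found by Hoechst imaging, EdU status from nuclear versus surrounding ring intensity ratio, PBS as neutral control.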

| Sequence | percentage of EdU-negative [1, 3] | percentage of EdU-negative [1, 4] | percentage of EdU-negative [2, 3] | percentage of EdU-negative [2, 4] | percentage of EdU-negative [1, 5] | percentage of EdU-negative ([1]; protein concentration 0.225 µM) | percentage of EdU-negative [2, 5] | percentage of EdU-negative ([2]; protein concentration 0.225 µM) |
| --- | --- | --- | --- | --- | --- | --- | --- | --- |
| MWLRAFILATLSASAAWGHPSSPPVVDTVHGKVLGKFVSLEGFAQPVAIFLGIPFAKPPLGPLRFTPPQPAEPWSFVKNATSYPPMCTQDPKAGQLLSELFTNRKENIPLKLSEDCLYLNIYTPADLTKKNRLPVMVWIHGGGLMVGAASTYDGLALAAHENVVVVTIQYRLGIWGFFSTGDEHSRGNWGHLDQVAALRWVQDNIASFGGNPGSVTIFGESAGGESVSVLVLSPLAKNLFHRAISESGVALTSVLVKKGDVKPLAEQIAITAGCKTTTSAVMVHCLRQKTEEELLETTLKMKFLSLDLQGDPRESQPLLGTVIDGMLLLKTPEELQAERNFHTVPYMVGINKQEFGWLIPMQLMSYPLSEGQLDQKTAMSLLWKSYPLVCIAKELIPEATEKYLGGTDDTVKKKDLFLDLIADVMFGVPSVIVARNHRDAGAPTYMYEFQYRPSFSSDMKPKTVIGDHGDELFSVFGAPFLKEGASEEEIRLSKMVMKFWANFARNGNPNGEGLPHWPEYNQKEGYLQIGANTQAAQKLKDKEVAFWTNLFAKKAVEKPPQTEHIEL | 23.32 ± 0.21% | 24.5 ± 1.9% | 4.96 ± 0.78% | 6.05 ± 0.03% |  |  |  |  |
| MSSFSTTTVSFLLLLAFQLLGQTRANPMYNAVSNADLMDFKNLLDHLEEKMPLEDEVVPPQVLSEPNEEAGAALSPLPEVPPWTGEVSPAQRDGGALGRGPWDSSDRSALLKSKLRALLTAPRSLRRSSCFGGRMDRIGAQSGLGCNSFRY |  |  |  |  | 25 ± 2.1% | 25.7 ± 1.1% | 4.9 ± 0.49% | 6.92 ± 0.56% |
| MSEEVTYADLQFQNSSEMEKIPEIGKFGEKAPPAPSHVWRPAALFLTLLCLLLLIGLGVLASMFHVTLKIEMKKMNKLQNISEELQRNISLQLMSNMNISNKIRNLSTTLQTIATKLCRELYSKEQEHKCKPCPRRWIWHKDSCYFLSDDVQTWQESKMACAAQNASLLKINNKNALEFIKSQSRSYDYWLGLSPEEDSTRGMRVDNIINSSAWVIRNAPDLNNMYCGYINRLYVQYYHCTYKKRMICEKMANPVQLGSTYFREA [Q5QGZ9] |  |  |  |  | 25.2 ± 1.6% | 28.95 ± 0.13% | 4.07 ± 0.067% | 4.99 ± 0.84% |
| MGIELLCLFFLFLGRNDHVQGGCALGGAETCEDCLLIGPQCAWCAQENFTHPSGVGERCDTPANLLAKGCQLNFIENPVSQVEILKNKPLSVGRQKNSSDIVQIAPQSLILKLRPGGAQTLQVHVRQTEDYPVDLYYLMDLSASMDDDLNTIKELGSRLSKEMSKLTSNFRLGFGSFVEKPVSPFVKTTPEEIANPCSSIPYFCLPTFGFKHILPLTNDAERFNEIVKNQKISANIDTPEGGFDAIMQAAVCKEKIGWRNDSLHLLVFVSDADSHFGMDSKLAGIVIPNDGLCHLDSKNEYSMSTVLEYPTIGQLIDKLVQNNVLLIFAVTQEQVHLYENYAKLIPGATVGLLQKDSGNILQLIISAYEELRSEVELEVLGDTEGLNLSFTAICNNGTLFQHQKKCSHMKVGDTASFSVTVNIPHCERRSRHIIIKPVGLGDALELLVSPECNCDCQKEVEVNSSKCHHGNGSFQCGVCACHPGHMGPRCECGEDMLSTDSCKEAPDHPSCSGRGDCYCGQCICHLSPYGNIYGPYCQCDNFSCVRHKGLLCGGNGDCDCGECVCRSGWTGEYCNCTTSTDSCVSEDGVLCSGRGDCVCGKCVCTNPGASGPTCERCPTCGDPCNSKRSCIECHLSAAGQAREECVDKCKLAGATISEEEDFSKDGSVSCSLQGENECLITFLITTDNEGKTIIHSINEKDCPKPPNIPMIMLGVSLAILLIGVVLLCIWKLLVSFHDRKEVAKFEAERSKAKWQTGTNPLYRGSTSTFKNVTYKHREKQKVDLSTDC |  |  |  |  | 23.6 ± 0.48% | 28 ± 1.7% | 5.434 ± 0.051% | 6.34 ± 1.4% |
